Test results from the supplement of paper PMC10065799, “High-throughput profiling of sequence recognition by tyrosine kinases and SH2 domains using bacterial peptide display” (eLife, 2023).

Experiments:
[1] = system: AncSZ; assay: phosphorylation enrichment, bacterial display (enrichment ratio); higher = better substrate or ligand; peptides without Tyr show the background
[2] = biological target: EPHB1 (UniProt P54762); assay: as above
[3] = biological target: EPHB2 (UniProt P29323); assay: as above
[4] = biological target: FGFR1 (UniProt P11362); assay: as above
[5] = biological target: FGFR3 (UniProt P22607); assay: as above
[6] = system: Fer (mouse); assay: as above
[7] = biological target: Fes (UniProt P07332); assay: as above
[8] = biological target: Fyn (UniProt P06241); assay: as above
[9] = biological target: Hck (UniProt P08631); assay: as above
[10] = biological target: Jak2 (UniProt O60674); assay: as above
[11] = biological target: MERTK (UniProt Q12866); assay: as above
[12] = system: c-Abl (mouse); assay: as above
[13] = system: c-Src; assay: as above
[14] = biological target: Grb2 SH2 (UniProt P62993); assay: SH2 binding enrichment of the phosphorylated peptide, bacterial display (enrichment ratio); higher = better substrate or ligand; peptides without Tyr show the background
[15] = biological target: SHP2-C SH2; assay: as above
[16] = biological target: c-Src SH2; assay: as above
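For SH2 binding enrichment of the phosphorylated peptide, bacterial display in this document: peptide library displayed on the E. coli surface as eCPX fusions, selected cells deep-sequenced, score is each peptide's frequency after selection divided by its frequency in the input.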
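For phosphorylation enrichment, bacterial display in this document: 11-residue human phosphosite peptides and single-mutation variants displayed on the E. coli surface, counted by deep sequencing, each peptide's frequency after selection divided by its frequency in the unselected input library; frequency after pTyr selection over input frequency; kinase dosed for 20-30% of maximal phosphorylation in three min.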

Sequence of Fes (P07332 whole entry, looked up): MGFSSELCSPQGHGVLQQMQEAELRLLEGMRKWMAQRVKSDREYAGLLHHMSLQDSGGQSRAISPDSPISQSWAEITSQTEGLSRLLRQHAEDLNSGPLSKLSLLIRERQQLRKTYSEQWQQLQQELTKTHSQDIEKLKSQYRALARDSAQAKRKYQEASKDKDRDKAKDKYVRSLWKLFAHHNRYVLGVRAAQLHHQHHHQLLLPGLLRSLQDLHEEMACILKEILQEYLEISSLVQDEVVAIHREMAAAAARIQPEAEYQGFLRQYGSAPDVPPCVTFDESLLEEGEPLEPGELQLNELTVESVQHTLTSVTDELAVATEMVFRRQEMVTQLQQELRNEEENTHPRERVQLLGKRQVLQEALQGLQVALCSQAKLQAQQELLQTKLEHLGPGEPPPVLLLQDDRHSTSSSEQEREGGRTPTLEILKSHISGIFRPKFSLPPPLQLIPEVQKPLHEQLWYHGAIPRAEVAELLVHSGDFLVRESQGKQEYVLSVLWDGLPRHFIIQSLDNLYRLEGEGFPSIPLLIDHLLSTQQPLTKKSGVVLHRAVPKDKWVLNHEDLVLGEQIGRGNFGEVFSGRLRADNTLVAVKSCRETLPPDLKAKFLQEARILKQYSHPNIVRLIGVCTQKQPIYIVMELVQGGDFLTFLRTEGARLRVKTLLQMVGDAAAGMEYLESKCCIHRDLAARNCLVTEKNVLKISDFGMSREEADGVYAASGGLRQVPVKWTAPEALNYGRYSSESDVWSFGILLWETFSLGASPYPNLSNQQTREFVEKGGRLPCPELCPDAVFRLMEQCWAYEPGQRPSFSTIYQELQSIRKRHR
Sequence of FGFR3 (P22607 whole entry, looked up): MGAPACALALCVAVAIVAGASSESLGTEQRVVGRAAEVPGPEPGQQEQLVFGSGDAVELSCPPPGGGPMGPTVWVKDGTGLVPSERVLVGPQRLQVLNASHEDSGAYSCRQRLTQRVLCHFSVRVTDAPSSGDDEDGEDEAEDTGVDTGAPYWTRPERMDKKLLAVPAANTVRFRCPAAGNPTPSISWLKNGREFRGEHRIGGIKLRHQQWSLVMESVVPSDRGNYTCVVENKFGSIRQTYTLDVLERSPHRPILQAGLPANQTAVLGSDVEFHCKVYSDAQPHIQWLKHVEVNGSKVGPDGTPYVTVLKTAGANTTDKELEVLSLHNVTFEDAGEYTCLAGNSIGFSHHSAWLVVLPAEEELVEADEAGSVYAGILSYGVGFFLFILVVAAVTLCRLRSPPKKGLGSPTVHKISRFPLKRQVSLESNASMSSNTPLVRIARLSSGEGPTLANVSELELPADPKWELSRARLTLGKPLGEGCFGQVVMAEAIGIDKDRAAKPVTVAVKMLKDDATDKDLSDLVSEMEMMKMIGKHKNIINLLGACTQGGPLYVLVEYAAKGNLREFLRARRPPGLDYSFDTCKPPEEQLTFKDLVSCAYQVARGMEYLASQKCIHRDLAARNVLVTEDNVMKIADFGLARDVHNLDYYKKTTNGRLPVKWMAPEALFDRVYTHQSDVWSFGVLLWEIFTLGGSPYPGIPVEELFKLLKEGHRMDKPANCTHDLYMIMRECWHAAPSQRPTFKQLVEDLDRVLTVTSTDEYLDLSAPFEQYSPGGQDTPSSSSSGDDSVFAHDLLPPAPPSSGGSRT
Sequence of MERTK (Q12866 whole entry, looked up): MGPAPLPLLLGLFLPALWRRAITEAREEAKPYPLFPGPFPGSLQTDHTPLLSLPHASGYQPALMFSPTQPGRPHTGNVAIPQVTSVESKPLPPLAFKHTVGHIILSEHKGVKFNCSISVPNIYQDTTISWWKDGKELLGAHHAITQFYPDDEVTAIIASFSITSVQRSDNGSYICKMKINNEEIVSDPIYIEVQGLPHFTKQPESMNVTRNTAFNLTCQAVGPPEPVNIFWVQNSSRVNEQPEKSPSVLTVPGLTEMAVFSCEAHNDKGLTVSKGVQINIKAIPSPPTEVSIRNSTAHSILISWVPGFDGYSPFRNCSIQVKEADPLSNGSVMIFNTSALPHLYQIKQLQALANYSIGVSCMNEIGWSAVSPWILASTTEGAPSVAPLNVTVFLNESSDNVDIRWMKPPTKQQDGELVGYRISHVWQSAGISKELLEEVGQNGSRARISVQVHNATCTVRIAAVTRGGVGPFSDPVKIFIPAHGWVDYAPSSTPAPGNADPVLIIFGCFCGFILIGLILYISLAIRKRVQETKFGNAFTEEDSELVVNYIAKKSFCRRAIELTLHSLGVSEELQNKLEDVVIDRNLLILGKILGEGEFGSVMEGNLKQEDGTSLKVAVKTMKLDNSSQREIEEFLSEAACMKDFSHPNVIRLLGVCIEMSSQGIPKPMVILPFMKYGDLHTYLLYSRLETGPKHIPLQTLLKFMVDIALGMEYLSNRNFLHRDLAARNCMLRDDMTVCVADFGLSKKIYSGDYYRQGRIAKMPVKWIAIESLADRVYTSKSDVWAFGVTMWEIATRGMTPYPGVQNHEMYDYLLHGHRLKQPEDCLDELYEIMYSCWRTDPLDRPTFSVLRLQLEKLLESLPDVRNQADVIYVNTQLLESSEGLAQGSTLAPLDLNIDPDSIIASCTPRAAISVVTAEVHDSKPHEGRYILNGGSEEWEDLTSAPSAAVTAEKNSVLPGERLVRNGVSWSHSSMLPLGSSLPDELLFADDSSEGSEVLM
Sequence of EPHB1 (P54762 whole entry, looked up): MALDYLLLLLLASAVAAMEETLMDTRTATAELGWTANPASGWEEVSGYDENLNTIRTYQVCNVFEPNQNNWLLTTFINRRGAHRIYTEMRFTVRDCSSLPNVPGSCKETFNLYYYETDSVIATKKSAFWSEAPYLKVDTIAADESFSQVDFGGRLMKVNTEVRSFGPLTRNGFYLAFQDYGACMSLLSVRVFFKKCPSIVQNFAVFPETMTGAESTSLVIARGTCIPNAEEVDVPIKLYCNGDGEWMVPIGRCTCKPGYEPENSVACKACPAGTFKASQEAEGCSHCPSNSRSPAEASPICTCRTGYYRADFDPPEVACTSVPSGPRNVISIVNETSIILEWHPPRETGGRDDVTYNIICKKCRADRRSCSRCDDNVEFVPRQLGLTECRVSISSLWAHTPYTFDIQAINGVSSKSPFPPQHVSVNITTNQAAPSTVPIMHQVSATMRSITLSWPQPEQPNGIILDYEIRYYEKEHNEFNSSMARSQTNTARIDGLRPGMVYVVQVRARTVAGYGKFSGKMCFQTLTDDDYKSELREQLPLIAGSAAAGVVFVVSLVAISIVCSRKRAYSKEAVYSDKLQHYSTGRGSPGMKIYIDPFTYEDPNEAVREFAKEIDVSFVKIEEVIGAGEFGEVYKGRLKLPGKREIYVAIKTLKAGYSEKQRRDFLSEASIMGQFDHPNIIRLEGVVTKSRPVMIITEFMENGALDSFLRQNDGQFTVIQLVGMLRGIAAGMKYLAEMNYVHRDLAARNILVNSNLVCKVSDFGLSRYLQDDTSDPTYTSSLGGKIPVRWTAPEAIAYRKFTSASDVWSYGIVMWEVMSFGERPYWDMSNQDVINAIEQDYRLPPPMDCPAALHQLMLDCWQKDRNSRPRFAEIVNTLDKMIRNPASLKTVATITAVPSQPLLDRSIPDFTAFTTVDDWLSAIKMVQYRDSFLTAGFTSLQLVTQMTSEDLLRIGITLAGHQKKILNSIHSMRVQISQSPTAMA
Sequence of Fyn (P06241 whole entry, looked up): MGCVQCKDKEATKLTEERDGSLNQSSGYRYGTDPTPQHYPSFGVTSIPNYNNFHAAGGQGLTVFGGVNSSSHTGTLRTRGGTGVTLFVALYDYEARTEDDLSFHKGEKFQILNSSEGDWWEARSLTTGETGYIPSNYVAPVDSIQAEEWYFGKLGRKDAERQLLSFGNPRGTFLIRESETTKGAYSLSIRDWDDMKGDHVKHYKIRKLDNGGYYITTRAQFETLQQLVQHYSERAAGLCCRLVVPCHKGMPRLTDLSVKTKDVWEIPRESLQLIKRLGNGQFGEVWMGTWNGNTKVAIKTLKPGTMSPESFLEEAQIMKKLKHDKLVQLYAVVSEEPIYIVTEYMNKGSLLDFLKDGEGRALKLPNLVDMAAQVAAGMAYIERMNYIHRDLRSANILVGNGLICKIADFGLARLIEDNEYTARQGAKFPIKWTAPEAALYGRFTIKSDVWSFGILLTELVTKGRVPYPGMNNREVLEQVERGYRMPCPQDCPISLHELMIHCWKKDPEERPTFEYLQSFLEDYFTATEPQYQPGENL
Sequence of Hck (P08631 whole entry, looked up): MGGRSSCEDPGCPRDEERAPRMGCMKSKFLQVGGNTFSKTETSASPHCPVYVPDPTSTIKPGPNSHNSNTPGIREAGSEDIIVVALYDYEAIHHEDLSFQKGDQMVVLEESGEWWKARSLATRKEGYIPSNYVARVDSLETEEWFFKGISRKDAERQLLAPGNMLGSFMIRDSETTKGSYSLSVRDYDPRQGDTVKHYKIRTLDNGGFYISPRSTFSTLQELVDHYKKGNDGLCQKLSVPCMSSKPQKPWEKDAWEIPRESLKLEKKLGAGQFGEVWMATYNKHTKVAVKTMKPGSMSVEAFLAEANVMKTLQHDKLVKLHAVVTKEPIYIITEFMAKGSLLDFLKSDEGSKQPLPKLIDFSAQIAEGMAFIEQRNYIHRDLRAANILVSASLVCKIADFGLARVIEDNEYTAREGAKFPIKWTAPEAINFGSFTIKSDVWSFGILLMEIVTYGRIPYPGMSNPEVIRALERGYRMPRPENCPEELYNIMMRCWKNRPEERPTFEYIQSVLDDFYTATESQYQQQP

SH2 binding enrichment [14] | SH2 binding enrichment [15] | SH2 binding enrichment [16] | Sequence | phosphorylation enrichment [1] | phosphorylation enrichment [2] | phosphorylation enrichment [3] | phosphorylation enrichment [4] | phosphorylation enrichment [5] | phosphorylation enrichment [6] | phosphorylation enrichment [7] | phosphorylation enrichment [8] | phosphorylation enrichment [9] | phosphorylation enrichment [10] | phosphorylation enrichment [11] | phosphorylation enrichment [12] | phosphorylation enrichment [13]
1.2 | 1.01 | 0.705 | FVSIVYNDSGE [TSC2_Y1650] | 0.951 | 0.509 | 0.702 | 0.559 | 0.725 | 0.52 | 0.993 | 0.596 | 0.611 | 0.942 | 0.571 | 0.647 | 0.516
0.933 | 0.573 | 0.569 | KRLKDYLTVLQ [USP25_Y425] | 0.679 | 0.422 | 0.412 | 0.506 | 0.522 | 0.431 | 0.664 | 0.349 | 0.322 | 0.625 | 0.352 | 0.783 | 0.403
1.69 | 1.67 | 1.17 | ILTFKYLQIPM [KIT_Y547_K550I_YF] | 1.07 | 0.586 | 0.649 | 0.442 | 0.663 | 0.521 | 1.16 | 0.468 | 0.453 | 1.02 | 0.371 | 0.637 | 0.344

Further lines, the sequence ahead of its results:

Sequence | SH2 binding enrichment [14] | SH2 binding enrichment [15] | SH2 binding enrichment [16] | phosphorylation enrichment [1] | phosphorylation enrichment [2] | phosphorylation enrichment [3] | phosphorylation enrichment [4] | phosphorylation enrichment [5] | phosphorylation enrichment [6] | phosphorylation enrichment [7] | phosphorylation enrichment [8] | phosphorylation enrichment [9] | phosphorylation enrichment [10] | phosphorylation enrichment [11] | phosphorylation enrichment [12] | phosphorylation enrichment [13]
HFPFQCHRQLY [F12_Y53_Y53C] | 1.21 | 1.15 | 1.16 | 0.689 | 0.559 | 0.645 | 0.639 | 0.564 | 0.385 | 1.05 | 0.528 | 0.681 | 0.861 | 0.597 | 0.532 | 0.422
NSAFFYKTAEE [CCT6B_Y250_G247A] | 1.19 | 0.923 | 0.565 | 0.962 | 0.521 | 0.472 | 0.452 | 0.696 | 0.47 | 1.23 | 0.524 | 0.496 | 0.927 | 0.439 | 0.593 | 0.38
GGEAIYAAPFA [Abl_opt_1995] | 0.778 | 0.416 | 0.486 | 4 | 20.2 | 27.9 | 2.48 | 2.05 | 20.5 | 1.11 | 13.1 | 12.7 | 0.747 | 13.5 | 35.6 | 9.05
YHRQLYHKCTH [F12_Y58] | 1.34 | 1.22 | 1.44 | 0.886 | 0.41 | 0.537 | 0.453 | 0.606 | 0.467 | 0.795 | 0.378 | 0.53 | 0.653 | 0.571 | 0.641 | 0.481
PAIFTYDEFKK [COL8A2_Y648_T645I_YF] | 0.829 | 0.888 | 0.509 | 1.47 | 0.398 | 0.359 | 0.374 | 0.501 | 0.304 | 1.11 | 0.952 | 1.66 | 1.12 | 0.594 | 1.03 | 3
